From publication PMC6528599

Molecular target: T1, GlaR (YugA) (Lactococcus lactis IL1403) (UniProt Q7DAT6)
T1 sequence: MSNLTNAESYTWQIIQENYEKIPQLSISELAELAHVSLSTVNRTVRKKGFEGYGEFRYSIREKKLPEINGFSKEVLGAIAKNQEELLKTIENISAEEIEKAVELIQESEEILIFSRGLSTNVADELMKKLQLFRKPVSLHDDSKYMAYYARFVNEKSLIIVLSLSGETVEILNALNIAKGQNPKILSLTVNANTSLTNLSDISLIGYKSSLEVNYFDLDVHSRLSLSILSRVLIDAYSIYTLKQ
Test: EMSA
Settings: EMSA: 1 nM DNA, 10 mM Tris-HCl pH 8.5, 10 mM MgCl2, 100 mM KCl, 0.1 mg/ml BSA (printed as 10x binding buffer), 250 mM galactose, 20 ul, 20 min at 37 C; 5% PAGE …

CCATTACATTTTCATGACGATTACATACAAAAAAAGCTCAAAAATTTGAGCTTTTTTTTTCGAATTTTAGATAATTAACTAGTAACCTTTTGGATGACTTTGGTGCCATTTCCAAGCGTTCGTAATAATGTGCTCTAAATCATTTTGTGCTTTCCAACCCAAAATTTCACCAGCTTTTGTTGAATCAGCAACCAGCTCATCTGGGTCTCCTGCACGGCGTTCACCCATTTGGCTTGGAATTTCTTTACCTGTTACTTTTCGTGCGGTTTCAAGCACTTCAAG (double strand)
binding: no binding

GGACATTGGCATCTACTTGAAGAAGAAGCAGGAACATGGTTAAATATTGACGGATTCCATATGGGTGTAGGTGGAGATGATTCATGGAGTCCAAGTGTCGCTCAGGAATATTTATTGACAAAGGGAAATTATCATTATGAAGTTAGTTTTAAATTAACGTGATGATCCAAATTTTCAAGAATTTGATATAATATAGAGAAAATGGAGGTTCTTATGACGGTTTTAGTTCTTGGTGGAGCAGGATACGTGGGAAGTCACGCGGTAGATATGCTTCTTAAACGTGGTTACGATGTGGCAG (double strand) [galE upstream region]
binding: no binding
